Measurements published in US20240261333A1 (published 2024).

Experiments:
Assay in all cases: co-IP, anti-FLAG, lysate of cells with N-FLAG B3GNT2; mass spectrometry
DDX5 = molecular target: T1, DDX5 (human, UniProt P17844 1-614)
T1 construct: also called NP_001307526.1
Procedure: (§1) Cells were plated in 10-cm cell culture dishes and grown to 60-80% confluency. For each condition, two biological replicates were harvested for co-IP. Cells were washed with PBS and 4 mL of lysis buffer (20 mM HEPES, 1% Triton X-100, 150 mM NaCl, 1 mM EDTA, and 10% glycerol) containing protease inhibitor cocktail was added. Cells were scraped and lysate was incubated at 4° C. under rotary agitation for 1 h. Lysate was centrifuged at 14,000×g for 10 min at 4° C. Supernatant was transferred to a new tube and an aliquot was taken as the input. […] For Western blots, 10 μg/mL Chicken Anti-FLAG (Aves labs ET-DY100) and IgY control (R&D Systems AB-101-C) antibodies were biotinylated (Thermo Fisher Scientific 90407) and added to the respective conditions. Lysates with antibodies were incubated at 4° C. under rotary agitation overnight. For each mL of lysate, 50 μL of Pierce Protein A/G Magnetic Beads (Mass spectrometry; Thermo Fisher Scientific 88803) or Pierce Streptavidin Magnetic Beads (Western blot; Thermo Fisher Scientific 88817) was washed twice with lysis buffer. Lysates with antibodies were added to the beads and incubated at 4° C. under rotary agitation for 4 h. Beads were washed with lysis buffer 3 times and resuspended in lysis buffer for storage.
(§2) Magnetic beads were resuspended in 100 mM Tris pH 7.8, reduced, alkylated and digested with trypsin at 37° ° C. overnight. This solution was subjected to solid phase extraction to concentrate the peptides and remove unwanted reagents followed by injection onto a Shimadzu HPLC with fraction collector. Eight fractions were collected and after concentration were injected on a Waters NanoAcquity HPLC equipped with a self-packed Aeris 3 μm C18 analytical column 0.075 mm by 20 cm, (Phenomenex). Peptides were eluted using standard reverse-phase gradients. The effluent from the column was analyzed using a Thermo Orbitrap Elite mass spectrometer (nanospray configuration) operated in a data dependent manner for 54 minutes. The resulting fragmentation spectra were correlated against the known database using Proteome Discover 1.4 (Thermo Fisher Scientific).

DNAJC3 = molecular target: T2, DNAJC3 (human, UniProt Q13217 32-504)
T2 construct: also called NP_006251.1 (+4)
T2 sequence (looked up): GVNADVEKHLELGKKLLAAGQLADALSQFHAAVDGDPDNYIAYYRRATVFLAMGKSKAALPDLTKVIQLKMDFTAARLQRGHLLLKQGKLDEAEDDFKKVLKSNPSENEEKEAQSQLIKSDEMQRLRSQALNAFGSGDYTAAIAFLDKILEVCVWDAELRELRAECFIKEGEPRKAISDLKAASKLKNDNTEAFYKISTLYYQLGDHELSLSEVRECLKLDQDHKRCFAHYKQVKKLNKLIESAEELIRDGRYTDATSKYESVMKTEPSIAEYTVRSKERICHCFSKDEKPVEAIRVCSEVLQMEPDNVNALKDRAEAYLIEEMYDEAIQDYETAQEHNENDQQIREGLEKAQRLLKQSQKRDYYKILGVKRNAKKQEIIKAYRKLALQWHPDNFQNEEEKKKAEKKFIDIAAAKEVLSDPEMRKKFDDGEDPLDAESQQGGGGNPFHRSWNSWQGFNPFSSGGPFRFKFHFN
Procedure: as §1, §2

FUBP3 = molecular target: T3, FUBP3 (human, UniProt Q96I24 2-572)
T3 construct: also called NP_003925.1 (+2)
T3 sequence (looked up): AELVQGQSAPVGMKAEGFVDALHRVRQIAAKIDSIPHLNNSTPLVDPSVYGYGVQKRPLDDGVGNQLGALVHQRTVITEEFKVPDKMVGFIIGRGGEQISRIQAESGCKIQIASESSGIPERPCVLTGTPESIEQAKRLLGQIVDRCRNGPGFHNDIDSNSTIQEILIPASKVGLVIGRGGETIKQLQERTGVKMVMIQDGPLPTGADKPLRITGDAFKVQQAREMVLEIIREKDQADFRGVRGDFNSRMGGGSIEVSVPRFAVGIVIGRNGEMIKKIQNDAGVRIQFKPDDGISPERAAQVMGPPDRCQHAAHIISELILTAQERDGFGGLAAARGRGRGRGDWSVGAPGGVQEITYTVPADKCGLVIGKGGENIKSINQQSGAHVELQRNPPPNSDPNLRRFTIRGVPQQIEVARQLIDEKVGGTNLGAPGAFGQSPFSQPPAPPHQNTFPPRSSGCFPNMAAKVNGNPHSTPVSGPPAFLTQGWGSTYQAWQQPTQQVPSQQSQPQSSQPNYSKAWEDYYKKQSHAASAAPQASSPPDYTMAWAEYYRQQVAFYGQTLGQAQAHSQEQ
Procedure: as §1, §2

ARPC4 = ARPC4 (human, UniProt P59998 2-187)
Procedure: as §1, §2

T1 sequence (P17844 whole entry): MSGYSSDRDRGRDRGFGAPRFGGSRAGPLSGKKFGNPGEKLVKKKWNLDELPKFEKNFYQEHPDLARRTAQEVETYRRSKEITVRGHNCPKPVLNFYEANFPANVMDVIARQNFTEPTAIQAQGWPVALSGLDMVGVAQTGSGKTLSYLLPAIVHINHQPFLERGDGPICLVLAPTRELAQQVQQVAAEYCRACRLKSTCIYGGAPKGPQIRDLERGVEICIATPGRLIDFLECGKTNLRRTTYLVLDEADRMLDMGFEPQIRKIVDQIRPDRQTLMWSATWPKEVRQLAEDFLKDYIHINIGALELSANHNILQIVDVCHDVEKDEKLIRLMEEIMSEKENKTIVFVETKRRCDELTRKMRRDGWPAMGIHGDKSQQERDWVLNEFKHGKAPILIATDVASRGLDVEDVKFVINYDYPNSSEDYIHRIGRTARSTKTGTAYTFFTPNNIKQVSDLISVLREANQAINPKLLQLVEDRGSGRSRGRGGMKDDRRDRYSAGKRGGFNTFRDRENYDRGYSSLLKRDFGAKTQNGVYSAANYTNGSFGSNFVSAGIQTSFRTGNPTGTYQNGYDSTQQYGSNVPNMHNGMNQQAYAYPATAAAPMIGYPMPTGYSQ

B1: N-terminal FLAG tagged B3GNT2 (enzyme, human, UniProt Q9NY97 1-397, looked up)
chain: MSVGRRRIKLLGILMMANVFIYFIMEVSKSSSQEKNGKGEVIIPKEKFWKISTPPEAYWNREQEKLNRQYNPILSMLTNQTGEAGRLSNISHLNYCEPDLRVTSVVTGFNNLPDRFKDFLLYLRCRNYSLLIDQPDKCAKKPFLLLAIKSLTPHFARRQAIRESWGQESNAGNQTVVRVFLLGQTPPEDNHPDLSDMLKFESEKHQDILMWNYRDTFFNLSLKEVLFLRWVSTSCPDTEFVFKGDDDVFVNTHHILNYLNSLSKTKAKDLFIGDVIHNAGPHRDKKLKYYIPEVVYSGLYPPYAGGGGFLYSGHLALRLYHITDQVHLYPIDDVYTGMCLQKLGLVPEKHKGFRTFDIEEKNKNNICSYVDLMLVHSRKPQEMIDIWSQLQSAHLKC
notes: Overexpressed in cells and pulled down from the lysate with mouse anti-FLAG antibody; also called N-FLAG B3GNT2; N-term FLAG; not shown: N-terminal FLAG tag
Question: With B1 as the binder, how does the “co-IP mass spectrometry count” value (DDX5) read?
Answer: 16

Question: What about the “co-IP mass spectrometry count” value (DNAJC3) of the same binder?
Answer: 0

Question: And the “co-IP mass spectrometry count” value (FUBP3)?
Answer: 8

Question: What about the “co-IP mass spectrometry count” value (ARPC4) of the same binder?
Answer: 0
